Target: T1, 재조합 인간 TIGIT 단백질 (Acro Biosystems) (human, UniProt Q495A1 22-141)
T1 construct: Bought recombinant protein; also called recombinant human TIGIT; TIGIT 항원
T1 sequence: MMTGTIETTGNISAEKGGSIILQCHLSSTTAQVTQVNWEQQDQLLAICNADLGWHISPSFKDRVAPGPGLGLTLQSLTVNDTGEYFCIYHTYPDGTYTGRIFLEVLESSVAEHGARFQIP
Test: SPR, Biacore T200 multi-cycle kinetics, 25C; antibody captured on anti-human IgG CM5 chip, recombinant human TIGIT as analyte; 1:1 model

B1: 항-TIGIT 항체 7A6 (7A6_VH3/Vk5) (antibody, human IgG1, kappa, V domains shown)
VH: QVQLQESGPGLVKPSQTLSLTCTVTGYSITSDYAWNWIRQPPGKGLEWMGYISYSGSARYNPSLKSRVTISRDTSKNQFSLKLSSVTAEDTATYYCARKGYPAYFAYWGQGTLVTVSS
VL: DIQMTQSPSSLSASVGDRVSITCKASQDVSTAVAWYQQKPGQAPRLLIYSASYRYTGVPDRFSGSGSGTDFTLTISSLQPEDFATYYCQHHYSTPYTFGQGTKLEIKR
notes: Parental IgG1/kappa antibody without RS15; also called 7A6 VH3/Vκ5; Parental Ab (7A6)
Kd: 0.884 nM | koff: 0.00158 s⁻¹ | kon: 1.78e+06 M⁻¹ s⁻¹

From KR20230171885A (dated 2023)
